Assay results published in a protein production outcome set (Wang et al. 2014).

Assay: label from the status in PepcDB records

Sequence | protein production
MSLDVYVNFPADGHVREIAKTVLDGFDLHWYPDYYDAEAQVIKDRYVLGKRTKMIQAISAGVDHIDVNGIPENVVLCSNAGAYSISVAEHAFALLLAHAKNILENNELMKAGIFRQSPTTLLYGKALGILGYGGIGRRVAHLAKAFGMRVIAYTRSSVDQNVDVISESPADLFRQSDFVLIAIPLTDKTRGMVNSRLLANARKNLTIVNVARADVVSKPDMIGFLKERSDVWYLSDVWWNEPEITETNLRNAILSPHVAGGMSGEIMDIAIQLAFENVRNFFEGEGHHHHHH | not failed
MSLEARVLTGAALEARLDEVARLRIAVFRDWPYLYEGSMDYERSYLSTYRTSPGAILVGAFDGDRLVGASTGTPMEDHAEDFAAAFARTGLPLDEIFYCAESVLLPDYRGHGMGHRFFDLREAHARALGRRHSAFCSVIRPEDHPLRPAAARSNEPFWRKRGYAPLPGVVAHYGWTDVGEERETQKPLQFWIRDL | not failed
MSLEGLSINFATVRQGGNFGAIVDACLAHGITAISPWREQVHGVGLAEAARIVEQNGLRLSGHCRGGFFPAIDADGRRRAIEDNKRAVDEAAAMKADCLVLVVGGLPAGSRDLKGARQMVEDGMAKLLPYARAAGVPLAIEPLHPFYAAERACFNTLKQSLDLCDRLGAGTGVAIDVYHVWWDPELEEQVARAGRNGQILAHHICDWLVPTTDPLNDRGMMGDGVIDLKAFRAMIEAAGFHGPQEVEIFSHRWQARPMDEVLATVVERFKTVC | failed
MSLEIIKTGLAAFGMSGQVFHAPFISTNPHFELYKIVERSKELSKERYPQASIVRSFKELTEDPEIDLIVVNTPDNTHYEYAGMALEAGKNVVVEKPFTSTTKQGEELIALAKKKGLMLSVYQNRRWDADFLTVRDILAKSLLGRLVEYESTFARYRNFIKPNTWKETGESGGGLTYNLGSHLIDQAIQLFGMPEAVFADLGILREGGKVDDYFIIHLLHPSLAPNVKITLKASYLMREAEPRFALHGTLGSYVKYGVDKQEAALLAGEIPERPNWGEESEQEWGLLHTEINGKEICRKYPGIAGNYGGFYQNIYEHLCLGQPLETHAQDILNVIRIIEAAYQSHRENKIVNLKEGHHHHHH | not failed
MSLEKPYIISVYALIRNEKGEFLLLRRSENSRTNAGKWDLPGGKVNPDESLKEGVAREVWEETGITMVPGDIAGQVNFELTEKKVIAIVFDGGYVVADVKLSYEHIEYSWVSLEKILGMETLPAYFRDFFERFDRENKKPSKLFIEGHHHHHH | not failed
MSLELGQAMVTVAGIGCRKGAASDAIIAAVRAAERAFGVTVDYLATAPLKADEAGLAEAAKGLSLSLEIVAQERLEAVAAETMTFSQASLDHSGSPSVSEAAALAAAGAGARLVAPRLVVGDVTVAIAMTSDAPHGSRSAIEYGEQEEGHHHHHH | not failed
MSLEPLDVDAEGVAAATKARGFRPKHLVTGPSRDDKSFLGHPGGLPWMLQVEMWERFSWYGMRAILVYFITDTLAHGGLGLPINAGQVVMASYGAAVLLMTIPGGIFADRILGPWMSTLCGGLIIMTGHVILAIPQVVTSWIGLICIAIGTGFIKPNLSTVVGGLYDDGDPRRDQGFLYFYMSINIGSLFAPIVTGLLKDHYGYHVGFIAAAIGMALGLIAFFHGRSKLREFAFDIPNPLAPGEGRRMVLRALGIAVVGAVLAIGFKALLGEWTSAIAYALFAFASVTALSYFLTMFRSPKVSDRERGHLWAFVPLWVGQVLFTMIFEQAAGKMPTFAKDNTDGHIVGSWSVEPEQYQTINPAAVLILAGLLGMWFRRREGKFPNTPQKFAISVFIIGITALIMGFGFRSWPGGNRLAPWWFLAVVFVIQTVAELFMNPIGLSTATKLAPKKFASQNMTLWLLASACGQGLASVTIERTKNLGDVVFYYSLGIVTILVAVVLFVIAPWTQAKMKDVDSVAEEGDA | failed
MSLESLFQHIIFTEHQAEESRRLMREVRSEITRCREKIKKATEELNEEKIKLESKVQQFFEKSFFLQLLKAHENALEKQYSEITNHRNMLLQTFEAIKKQMIEEEDKFIKEITDFNNDYEITKKRELLMKENVKIEISDLENQANMLKSEMKSMEHDSSQLNELQKQKSELIQELFTLQRKLKVFEDEENESICTTKYLEAEKIKISEKPQNDTECLRLKKELELYKEDDMESVYEALQTEIEFLELTLAQKDLQESK | failed
MSLFRSRPNALSQRSVIASSSELASLAGRDILKRGGNIFDAALAVSAMLCVTQNNLCGLGGDLFALIRDENGQIMDLNGSGQASRAVSIDYYESMGLTKIPERGPYAAITVPGIAGSWDEIFRKFATMDIADILEPAIRTASAGFPITQNYSDSIARSAPVIGQYRGWSSIFMPNGSVPVAGEILKQPDLAESFRLMSEEGFRSFYDGSLADIIIAGLEGTGSPLSDRDLRVYRPLIGKPVFTDLDEFRIYETSPNSQGITVIEWIRGMESHGYDSRTMWEAKIEDIFETMEEAYDKRRKITDPSYMNIAQHDSANGKKDGLPKRDHNDIGDTTYFSISDSEGRSVSIIQSNYMGFGSGIVPKGTGFVLQNRGSYFTLQRDHPNALMPGKRTFHTLAACMVEKEHDLYASLGSMGGDIQPQVQMQILMEILKDNTDPQAILDKPRWTEPYTIYEAPGAVYVESEELYRNVSKQISGRKVVLRDVSQEFGTAQITTLIRGDVVVGAADPRGDGIAIPYSEGHHHHHH | not failed
MSLIENLWRGICIISASEDAFSAGETIKEKLKSFEIPVVHYRYKDAEIETIWKCYDAIVFVMALEGATRIVCKYAKSKTEDPAIVCIDDKINYVIPLLGGHWGANDIARELSVILNSTPIITTAAEIKGKLSIERIANILIAKIINPENIVKINAALLRDESICIDGIDVNVNFPENIKVNSEECSYIISLRGDKEYKDKIVVWLKPLKISIGIGSKKDVKMEEIRDGIYKVLERLNLKRERIGIIASIREEVKKIADEFNVRFRLVNEEEINNFMNPCLTPPSKTLIEVGLKGVAEISALIAGGRNSKLILRKIAISRNSTIAVATYEGHHHHHH | not failed
MSLKIDAVDLFYLSMPEVTDAADGSQDALLVRVAAGGHIGWGECEAAPLPSIAAFVCPKSHGVCRPVSDSVLGQRLDGPDDIARIAALVGYNSMDLLQAPHMLSGIEMALWDLLGRRLSAPAWALLGYSASHGKRPYASLLFGDTPQETLERARAARRDGFAAVKFGWGPIGRGTVAADADQIMAAREGLGPDGDLMVDVGQIFGEDVEAAAARLPTLDAAGVLWLEEPFDAGALAAHAALAGRGARVRIAGGEAAHNFHMAQHLMDYGRIGFIQIDCGRIGGLGPAKRVADAAQARGITYVNHTFTSHLALSASLQPFAGLEADRICEYPAAPQQLALDITGDHIRPDAEGLIRAPEAPGLGLQVAASALRRYLVETEIRIGGQLIYRTPQLEGHHHHHH | not failed
MSLKIGIIGGGSVGLLCAYYLSLYHDVTVVTRRQEQAAAIQSEGIRLYKGGEEFRADCSADTSINSDFDLLVVTVKQHQLQSVFSSLERIGKTNILFLQNGMGHIHDLKDWHVGHSIYVGIVEHGAVRKSDTAVDHTGLGAIKWSAFDDAEPDRLNILFQHNHSDFPIYYETDWYRLLTGKLIVNACINPLTALLQVKNGELLTTPAYLAFMKLVFQEACRILKLENEEKAWERVQAVCGQTKENRSSMLVDVIGGRQTEADAIIGYLLKEASLQGLDAVHLEFLYGSIKALERNTNKVEGHHHHHH | not failed
MSLKIRDAYTIVTCPGRNFVTLKIVTESGTHGIGDATLNGREMAVAAYLDEHVVPALIGRDAGRIEDTWQYLYRGAYWRRGPVTMTAIAAVDMALWDIKAKAAGMPLYQLLGGKSRERVMTYAHCTGQTIEDCLGEVARHVELGYRAVRVQSGVPGIETTYGVAKTPGERYEPADSSLPAEHVWSTEKYLNHAPKLFAAVRERFGDDLHVLHDVHHRLTPIEAARLGKAVEPYHLFWLEDCVPAENQESLRLIREHTTTPLAIGEVFNSIHDCRELIQNQWIDYIRMPLTHGGGITAMRRVADLASLYHVRTGFHGPTDLSPVCLGAAIHFDTWVPNFGIQEHMPHTDETDAVFPHDYRFEDGHFLAGESPGHGVDIDEELAAKYPYERASLPVNRLEDGTLWHWEGHHHHHH | not failed
MSLKITGVNIYLLKSGRLHPVLVEISTDEGITGAGEAGIAYGVGGTAAAGMIKDLSERFLIGKDPSRIEELWSTMYDHSFWAKNGGAIIFAGISAIEQALWDIKGKCLGVPVYELFGGKIRDRVRAYANGWYGAADTPDEFARAVERPLKEGYGALKFYPLAQRVGSALQHVTRRSMSAEAIELAYRRVKAVRDAAGPEIELMVDLSGGLTTDETIRFCRKIGELDICFVEEPCDPFDNGALKVISEQIPLPIAVGERVYTRFGFRKIFELQACGIIQPDIGTAGGLMETKKICAMAEAYNMRVAPHVCGSSLIETATLQLEANITNFMIHEHYPAFKADDGYVEVLENPPSISSGYFEMPNGPGLGAVLIKRNIEPYLWASCTEGHHHHHH | not failed
